The source of these data is US20110118131A1 (published 2011).

Substitutions are numbered along the chain they refer to. Numbers in names are those of the source.

First the molecules themselves.
B1: XPA23 Fab, heavy chain S52F (Fab, V domains shown)
VH: EVQLLESGGGLVQPGGSLRLSCAASGFTFSKYFMFWVRQAPGKGLEWVSVIFPSGGMTRYADSVKGRFTISRDNSKNTLYLQMNSLRAEDTAVYYCARVGYGGNSDYWGQGTLVTVSS
VL: DIQMTQSPSSVSASVGDRLTIICRASQDINRWLAWYQQTPGNAPKLLIHSATSLQSGVPSRFSGSGSGTDFTLTINSLQPEDFATYYCQQADSFPLTFGGGTKVEIK
B2: XPA23 Fab, heavy chain T28G (Fab, V domains shown)
VH: B1 VH with T28G, F52S
VL: B1 VL
B3: XPA23 Fab, heavy chain S52K (Fab, V domains shown)
VH: B1 VH with F52K
VL: B1 VL
B4: XPA23 Fab, heavy chain S52R (Fab, V domains shown)
VH: B1 VH with F52R
VL: B1 VL
B5: XPA23 Fab, heavy chain S105N (Fab, V domains shown)
VH: B1 VH with F52S, S105N
VL: B1 VL
B6: XPA23 Fab, heavy chain S54R (Fab, V domains shown)
VH: B1 VH with F52S, S54R
VL: B1 VL
B7: XPA23 Fab, heavy chain S52N (Fab, V domains shown)
VH: B1 VH with F52N
VL: B1 VL
B8: XPA23 Fab, heavy chain S105Y (Fab, V domains shown)
VH: B1 VH with F52S, S105Y
VL: B1 VL
B9: XPA23 Fab, heavy chain T28R (Fab, V domains shown)
VH: B1 VH with T28R, F52S
VL: B1 VL
B10: XPA23 Fab, heavy chain S54Q (Fab, V domains shown)
VH: B1 VH with F52S, S54Q
VL: B1 VL
B11: XPA23 Fab, heavy chain S54W (Fab, V domains shown)
VH: B1 VH with F52S, S54W
VL: B1 VL
B12: XPA23 Fab, heavy chain T28E (Fab, V domains shown)
VH: B1 VH with T28E, F52S
VL: B1 VL
B13: XPA23 Fab, heavy chain S52Y (Fab, V domains shown)
VH: B1 VH with F52Y
VL: B1 VL
B14: XPA23 Fab, heavy chain S52Q (Fab, V domains shown)
VH: B1 VH with F52Q
VL: B1 VL
B15: XPA23 Fab, heavy chain S54E (Fab, V domains shown)
VH: B1 VH with F52S, S54E
VL: B1 VL
B16: XPA23 Fab, heavy chain S54F (Fab, V domains shown)
VH: B1 VH with F52S, S54F
VL: B1 VL
B17: XPA23 Fab, heavy chain S54D (Fab, V domains shown)
VH: B1 VH with F52S, S54D
VL: B1 VL
B18: XPA23 Fab, heavy chain S105E (Fab, V domains shown)
VH: B1 VH with F52S, S105E
VL: B1 VL
B19: XPA23 Fab, heavy chain S105F (Fab, V domains shown)
VH: B1 VH with F52S, S105F
VL: B1 VL
B20: XPA23 Fab, heavy chain S105W (Fab, V domains shown)
VH: B1 VH with F52S, S105W
VL: B1 VL
B21: XPA23 Fab, heavy chain S105Q (Fab, V domains shown)
VH: B1 VH with F52S, S105Q
VL: B1 VL
B22: XPA23 Fab, heavy chain S105H (Fab, V domains shown)
VH: B1 VH with F52S, S105H
VL: B1 VL
B23: XPA23 Fab, heavy chain S105R (Fab, V domains shown)
VH: B1 VH with F52S, S105R
VL: B1 VL
B24: XPA23 Fab, heavy chain T28H (Fab, V domains shown)
VH: B1 VH with T28H, F52S
VL: B1 VL
B25: XPA23 Fab, heavy chain S54K (Fab, V domains shown)
VH: B1 VH with F52S, S54K
VL: B1 VL
B26: XPA23 Fab, heavy chain S52W (Fab, V domains shown)
VH: B1 VH with F52W
VL: B1 VL
B27: XPA23 Fab, heavy chain S52H (Fab, V domains shown)
VH: B1 VH with F52H
VL: B1 VL
B28: XPA23 Fab, heavy chain S54Y (Fab, V domains shown)
VH: B1 VH with F52S, S54Y
VL: B1 VL
B29: XPA23 Fab, heavy chain T28K (Fab, V domains shown)
VH: B1 VH with T28K, F52S
VL: B1 VL
B30: XPA23 Fab, heavy chain S54N (Fab, V domains shown)
VH: B1 VH with F52S, S54N
VL: B1 VL
B31: XPA23 Fab, heavy chain T28Q (Fab, V domains shown)
VH: B1 VH with T28Q, F52S
VL: B1 VL

The target in the assay is T1, IL-1beta (UniProt P01584 117-269).
T1 construct: also called IL-1β
Briefly: Biacore.
For the molecule B1, the binding result is reported as “no binding”.
The same measure, in the same setting: next, B2: “no binding”; B3: “no binding”; B4: “no binding”.
As to B5, the “fold difference in affinity vs parental” value amounted to 0.85 fold.
Same read-out and setting: next, B6: 1.43 fold.
For B7, the binding result is given as “no binding”.
Still for that read-out and setting: to B8 belongs “no binding”; to B9, “no binding”.
As to B10, the “fold difference in affinity vs parental” value was found to be 1.01 fold.
On the same count and under the same terms, to B11 belongs 1.07 fold.
Regarding B12, the binding result is recorded as “no binding”.
On the same count and under the same terms, next, B13: “no binding”.
The same measure, in the same setting: to B14 belongs “no binding”.
Take B15: the “fold difference in affinity vs parental” value turned out to be 0.03 fold.
B16: the “fold difference in affinity vs parental” value turned out to be 0.87 fold.
Same read-out and setting: next, B17: 0.12 fold; B18: 1.17 fold.
Same read-out and setting: next, B19: 1.25 fold.
B20: the binding result is given as “no binding”.
On to B21, for which the “fold difference in affinity vs parental” value was 0.98 fold.
For B22, the “fold difference in affinity vs parental” value was found to be 0.05 fold.
Turning to B23, the binding result is “no binding”.
The same measure, in the same setting: to B24 belongs “no binding”.
Take B25: the “fold difference in affinity vs parental” value was found to be 1.53 fold.
On to B26, for which the binding result is on record as “no binding”.
The same measure, in the same setting: next, B27: “no binding”.
As to B28, the “fold difference in affinity vs parental” value worked out at 0.99 fold.
As for B29, the binding result is reported as “no binding”.
For B30, the “fold difference in affinity vs parental” value was determined as 0.08 fold.
Turning to B31, the binding result is “no binding”.
